Here are results for one substance from PMC2840394.

The target of the assay is AL-12 variable domain (VL), amyloidogenic immunoglobulin kappa light chain of the κI O18/O8 germline (human (patient AL-12)). Put plainly: crystal structure.

As to “AL-12 variable domain (VL), amyloidogenic immunoglobulin kappa light chain of the κI O18/O8 germline (domain or fragment)”, the stoichiometry N (as a rule, a count of units in the complex or per binding partner) was 2.
